The values below come from PMC8367818, “The Taxus genome provides insights into paclitaxel biosynthesis” (Nature Plants, 2021).

Substrate in this data set: CC(C)=CCC/C(C)=C/CC/C(C)=C/CC/C(C)=C/COP(=O)(O)OP(=O)(O)O
The data set can be described thus: purified protein. The data set is classed as biochemical, Taxus chinensis. As to conditions: 1 mM MgCl2, 25 mM HEPES pH 8.5, 10% glycerol, 5 mM DTT, 32 °C, 30 min, GGPP spiked with [1-3H]-GGPP.

What is called Km is the substrate concentration at which the rate is half of its maximum. What is called kcat is the maximal rate divided by the concentration of active sites.

B1: TS2 (Taxus chinensis) (protein)
chain: SGSPTKLATENANAVAESNLIPRLSANYHGDLWHHGVIQTLQTPYQESSSYQERAEELIVKIKDMFKAVEEGAISPSAYDTAWVARVPDGSEKPRFPQALNWLLHNQLQDGSWGLESHFMLSDRLLSTLNSVISLLVWKTGQQQVEQGTLFITENLKLLEGEDELPPDFEIIFPALLQKAKALGMSLPDHDLPFIKSLSVAREARLASYTDNNIPASMLNALEGLEEVIDWDKIMRFQMPCLYSIDLLERLSLVDNIEHLGIGRHFKQEIKVALDYVYRYWSERGIGLGRDSLIPDLNTTALGLRTLRAHGYNVSSEVLNNFKDENGRFFSSLGQTHVELRSMVNLLRASDLAFPDEPLMDDAKIFAEAYLRDALATRISTNTKLFKEIDYAVEYPWHMSIPRLEARSYIDVYDDDYTWQNKTLYRMSNLSNAYCLELAKLDFNIVQSLHQEELKLLTRWWKESGMADINFTRHRVAEVYFSSATFEPEYSSTRIAFTKIGCLQVLFDDMADIFATLDELRDFTEGVKRWDTSLIHKLPDCMQTCFRVWFNLMEEVNNDVSNVQGRDMLNHIRKPWELYFNCYVQEREWLDAGYIPTLEEYLKTYSISVGLGPCTLQPILLMGDIVKDDVVEKVHYPSNLFELVSLSWRLTNDTKTYQAEKARGQQASGIACYMKDNPGSTEEDAIKYICGVVDRALKEACFEYFKPADDVPMSCKSFIFNLRLCVQIFYKFIDGYGIANEEIKDYIRKVYIEPIQV
notes: 60-residue N-terminal (plastid transit) truncation, His-tagged, pET28b, E. coli, purified
As to B1, the Michaelis-Menten constant (Km) is 8.6 ± 1.5 µM and the kcat turned out to be 3280 s⁻¹.

B2: TS1 (Taxus chinensis) (protein)
chain: MSSSTGTSKVVSETSSTIVDDIPRLSANYHGDLWHHNVIQTLETPFRESSTYQERADELVVKIKDMFNALGDGDISPSAYDTAWVARVATISSDGSEKPRFPQALNWVLNNQLQDGSWGIESHFSLCDRLLNTINSVIALSVWKTGHSQVEQGTEFIAENLRLLNEEDELSPDFEIIFPALLQKAKSLGINLPYDLPFIKYLSTTREARLTDVSAAADNIPANMLNALEGLEEVIDWKKIMRFQSKDGSFLSSPASTACVLMNTGDEKCFTFLNNLLDKFGGCVPCMYSIDLLERLSLVDNIEHLGIGRHFKQEIKVALDYVYRHWSERGIGWGRDSLVPDLNTTALGLRTLRTHGYDVSSDVLNNFKDENGRFFSSAGQTHVELRSVVNLFRASDLAFPDEGAMDDARKFAEPYLRDALATKISTNTKLFKEIEYVVEYPWHMSIPRLEARSYIDSYDDDYVWERKTLYRMPSLSNSKCLELAKLDFNIVQSLHQEELKLLTRWWKESGMADINFTRHRVAEVYFSSATFEPEYSATRIAFTKIGCLQVLFDDMADIFATLDELKSFTEGVKRWDTSLLHEIPECMQTCFKVWFKLMEEVNNDVVKVQGRDMLAHIRKPWELYFNCYVQEREWLDAGYIPTFEEYLKTYAISVGLGPCTLQPILLMGELVKDDVVEKVHYPSNMFELVSLSWRLTNDTKTYQAEKARGQQASGIACYMKDNPGATEEDAIKHICRVVDRALKEASFEYFKPSNDIPMGCKSFIFNLRLCVQIFYKFIDGYGIANEEIKDYIRKVYIDPIQV
notes: as for B1
Regarding B2, the Km stood at 5.5 ± 1.6 µM and the catalytic constant (kcat) turned out to be 1705 s⁻¹.
